According to patent US6677433B2 (The Regents of the University of California, priority 2001, dated 2004):

Biological target: NADP/thioredoxin system (Escherichia coli, UniProt P0AA25)
Method: Direct reduction of the proteins under study was determined by a modification of the method of Crawford et al. (Crawford, N. A. et al. (1989), Arch. Biochem. Biophys. 271:223-239). The reaction was carried out in 100 mM potassium phosphate buffer, pH 7.1, containing 10 mM EDTA and 16% glycerol in a final volume of 0.1 ml. As indicated, 0.7 μg (0.1 μM) NTR and 1 μg (0.8 μM) thioredoxin (both routinely from E. coli were added to 70 μl of the buffer solution containing 1 mM NADPH and 10 μg (2 to 17 μM) of target protein. When thioredoxin was reduced by dithiothreitol (DTT, 0.5 mM), NADPH and NTR were omitted. Assays with reduced glutathione were performed similarly, but at a final concentration of 1 mM. After incubation for 20 min, 100 nmoles of mBBr were added and the reaction was continued for another 15 min. To stop the reaction and derivatize excess mBBr, 10 μl of 10% SDS and 10 μl of 100 mM β-mercaptoethanol were added and the samples were then applied to the gels. In the case of reduction by glutaredoxin, the thioredoxin and NTR were replaced by 1 μg (0.8 μM) E. coli glutaredoxin, 1.4 μg (0.14 μM) glutathione reductase purified from spinach leaves (Florencio, F. J. et al. (1988), Arch. Biochem. Biophys. 266:496-507) and 1.5 mM NADPH was used.

B1: Soybean Kunitz: Kunitz soybean trypsin inhibitor (protein, UniProt P01070 25-205, looked up)
Trypsin inhibitor A: DFVLDNEGNPLENGGTYYILSDITAFGGIRAAPTGNERCPLTVVQSRNELDKGIGTIISSPYRIRFIAEGHPLSLKFDSFAVIMLCVGIPTEWSVVEDLPEGPAVKIGENKDAMDGWFRLERVSDDEFNNYKLVFCPQQAEDDKCGDIGISIDHDDGTRRLVVSKNKPLVVQFQKLDKESL
  % Reduction After 20 min: 14%
  % Reduction After 120 min: 22%
